Where a chain is given by its changes, count along the chain named.
B1: 144 (protein)
chain: STAIAQEGAAPAAILHPEKWPRPATQRLIDPAVEKRVDALLKQLSVEEKVGQVIQGDIGTITPEDLRKYPLGSILAGGNSGPNGDDRAPPKEWLDLADAFYRVSLEKRPGHTPIPVLFGIDAVHGHGKIGSATIFPHNIALGATRDPELLRRIGEVTAVEMTATGIDWTFAPALSVVRDDRWGRTYEGFSEDPEIVASYSAAIVEGVQGKYGSKDFMAVGRIVACAKHFLADGGTDQGRDQGDARISEDELIRIHNAGYPPAIDAGVLTVMASFSSWQGIKHHGHKQLLTDVLKGQMGFNGFIVGDWNAHDQVPGCTKFNCPTSLIAGLDMYMAADSWKQLYENTLAQVKDGTIPMARLDDAVRRILRVKVLAGLFEKPAPKDRPGLPGLETLGSPEHRAVGREAVRKSLVLLKNDKGTLPLSPKARVLVAGDGADNIGKQSGGWTISWQGTGNRNDEFPGATSILGGIRDAVADAGGSVEFDVAGQYKTKPDVAIVVFGEEPYAEFQGDVETLEYQPDQKQDLALLKKLKDQGIPVVAVFLSGRPMWVNPELNASDAFVAAWLPGTEGGGVADVLFTDKAGKVQHDFAGKLSYSWPRTAAQTTVNRGDADYNPLFAYGYGLTYKDKSKVGTLPEESGVPAEARQNAGIYFRAGALRLPGRFL
B2: 75 (protein)
chain: B1 chain with K128N, T162A, S198A, Y211F, V219P, I222V, C225S
B3: 153 (protein)
chain: B1 chain with N79D, E92V, A143M, T162A, S198A, A201P, V219P, I222S
B4: 171 (protein)
chain: B1 chain with N79D, K128N, V159E, T162A, C225S
B5: 172 (protein)
chain: B1 chain with K128N, V159Q, T162A, S198A, V219P, I222S, G534E
B6: 169 (protein)
chain: B1 chain with N79D, K128N, V159Q, S198A, A201P, V219P
B7: 152 (protein)
chain: B1 chain with N79D, K128N, V159Q, T162A, S198A, A201P, V219P, I222A
B8: 77 (protein)
chain: B1 chain with K128N, T162A, S198A, A201P, Y211F, V219P
B9: 147 (protein)
chain: B1 chain with N79D, T162A, A173C, V219P, I222S, C225S
B10: 149 (protein)
chain: B1 chain with N79D, D146S, V159Q, T162A, S198A, A201P, V219P
B11: 151 (protein)
chain: B1 chain with K128N, A143M, A173C, V219P, C225S, L514Q
B12: 168 (protein)
chain: B1 chain with V159Q, T162A, S198A, A201P, V219P, I222S
B13: 175 (protein)
chain: B1 chain with N79D, K128N, D146S, T162A, V219P
B14: 159 (protein)
chain: B1 chain with N79D, K128N, Y211F, V219P
B15: 165 (protein)
chain: B1 chain with K128N, A143M, T162A, S198A, A201P, Y211F, V219P
B16: 78 (protein)
chain: B1 chain with K128N, T162A, S198A, Y211F, V219P
B17: 156 (protein)
chain: B1 chain with N79D, A143M, Y211F, V219P, I222S, Q237R
B18: 79 (protein)
chain: B1 chain with T162A, S198A, Y211F, V219P
B19: 155 (protein)
chain: B1 chain with N79D, K128N, T162A, Y211F, V219P
B20: 167 (protein)
chain: B1 chain with N79D, T162A, S198A, Y211F, V219P, C225S
B21: 150 (protein)
chain: B1 chain with N79D, I114V, V219P
B22: 179 (protein)
chain: B1 chain with N79D, T162A, A173C, V219P, C225S
B23: 164 (protein)
chain: B1 chain with N79D, D146S, T162A, S198A, Y211F, V219P
B24: 154 (protein)
chain: B1 chain with K128N, A143M, V159Q, T162A, S198A, A201P, V219P, I222A, F229I
B25: 74 (protein)
chain: B1 chain with T162A, S198A, A201P, Y211F, V219P
B26: 173 (protein)
chain: B1 chain with I14M, N79D, S198A, A201P, V219P, Q487R
B27: 166 (protein)
chain: B1 chain with N79D, K128N, G154V, T162A, S198A, V219P
B28: 146 (protein)
chain: B1 chain with N79D, K128N, A143M, V159Q, T162A, S198A, A201P, Y211F, V219P, K378R
B29: 162 (protein)
chain: B1 chain with K128N, T162A, A173C, S198A, A201P, C225S
B30: 145 (protein)
chain: B1 chain with N79D, K128N, D146S, V159E, T162A, V219P
B31: 174 (protein)
chain: B1 chain with E34D, N79D, A143M, V159E, T162A, S198A, A201P, V219P, C225S
B32: 170 (protein)
chain: B1 chain with D146S, V159E, T162A, S198A, A201P, V219P, A573V
B33: 178 (protein)
chain: B1 chain with K128N, T162A, V219P, I222A, A373T
B34: 158 (protein)
chain: B1 chain with N79D, K128N, T162A, I166T, V219P
B35: 76 (protein)
chain: B1 chain with T162A, S198A, Y211F, V219P, C225S
B36: 148 (protein)
chain: B1 chain with N79D, K128N, V159E, T162A, Y211F, V219P
B37: 80 (protein)
chain: B1 chain with S198A, Y211F, V219P
B38: 160 (protein)
chain: B1 chain with K128N, D146S, V159Q, T162A, S198A, A201P, V219P, I222A
B39: 163 (protein)
chain: B1 chain with N79D, D146S, A173C, V219P, C225S

Assay: High throughput cellobiose assay: fold improvement in cellobiase activity of CelA variants over a control enzyme (Tables 2A-2D, 3, 5, 6, 7)
Assay type: biochemical
Conditions: 3.3 g/l cellobiose, 55° C. and pH 6.0
With B1 the “Fold improvement over Control Variant No. 5 from Table 2A” value was “+++ (+++ = 6 to 13 fold improvement over control Variant No. 2)”. With B2 the “Fold improvement over Control Variant No. 5 from Table 2A” value was “++ (++ = 1.1 to 6 fold improvement over control Variant No. 2)”. For B3, the “Fold improvement over Control Variant No. 5 from Table 2A” value was “++ (++ = 1.1 to 6 fold improvement over control Variant No. 2)”. For B4, the “Fold improvement over Control Variant No. 5 from Table 2A” value was “+++ (+++ = 6 to 13 fold improvement over control Variant No. 2)”. In the case of B5, the “Fold improvement over Control Variant No. 5 from Table 2A” value is reported as “+++ (+++ = 6 to 13 fold improvement over control Variant No. 2)”. For B6, the “Fold improvement over Control Variant No. 5 from Table 2A” value was “+++ (+++ = 6 to 13 fold improvement over control Variant No. 2)”. For B7, the “Fold improvement over Control Variant No. 5 from Table 2A” value was “+++ (+++ = 6 to 13 fold improvement over control Variant No. 2)”. With B8 the “Fold improvement over Control Variant No. 5 from Table 2A” value was “++ (++ = 1.1 to 6 fold improvement over control Variant No. 2)”. With B9 the “Fold improvement over Control Variant No. 5 from Table 2A” value was “+++ (+++ = 6 to 13 fold improvement over control Variant No. 2)”. For B10, the “Fold improvement over Control Variant No. 5 from Table 2A” value was “+++ (+++ = 6 to 13 fold improvement over control Variant No. 2)”. In the case of B11, the “Fold improvement over Control Variant No. 5 from Table 2A” value is reported as “+++ (+++ = 6 to 13 fold improvement over control Variant No. 2)”. For B12, the “Fold improvement over Control Variant No. 5 from Table 2A” value was “+++ (+++ = 6 to 13 fold improvement over control Variant No. 2)”. In the case of B13, the “Fold improvement over Control Variant No. 5 from Table 2A” value is reported as “+++ (+++ = 6 to 13 fold improvement over control Variant No. 2)”. For B14, the “Fold improvement over Control Variant No. 5 from Table 2A” value was “+++ (+++ = 6 to 13 fold improvement over control Variant No. 2)”. With B15 the “Fold improvement over Control Variant No. 5 from Table 2A” value was “+++ (+++ = 6 to 13 fold improvement over control Variant No. 2)”. For B16, the “Fold improvement over Control Variant No. 5 from Table 2A” value was “++ (++ = 1.1 to 6 fold improvement over control Variant No. 2)”. For B17, the “Fold improvement over Control Variant No. 5 from Table 2A” value was “+++ (+++ = 6 to 13 fold improvement over control Variant No. 2)”. In the case of B18, the “Fold improvement over Control Variant No. 5 from Table 2A” value is reported as “++ (++ = 1.1 to 6 fold improvement over control Variant No. 2)”. For B19, the “Fold improvement over Control Variant No. 5 from Table 2A” value was “+++ (+++ = 6 to 13 fold improvement over control Variant No. 2)”. For B20, the “Fold improvement over Control Variant No. 5 from Table 2A” value was “++ (++ = 1.1 to 6 fold improvement over control Variant No. 2)”. For B21, the “Fold improvement over Control Variant No. 5 from Table 2A” value was “+++ (+++ = 6 to 13 fold improvement over control Variant No. 2)”. For B22, the “Fold improvement over Control Variant No. 5 from Table 2A” value was “+++ (+++ = 6 to 13 fold improvement over control Variant No. 2)”. For B23, the “Fold improvement over Control Variant No. 5 from Table 2A” value was “+++ (+++ = 6 to 13 fold improvement over control Variant No. 2)”. For B24, the “Fold improvement over Control Variant No. 5 from Table 2A” value was “++ (++ = 1.1 to 6 fold improvement over control Variant No. 2)”. In the case of B25, the “Fold improvement over Control Variant No. 5 from Table 2A” value is reported as “++ (++ = 1.1 to 6 fold improvement over control Variant No. 2)”. For B26, the “Fold improvement over Control Variant No. 5 from Table 2A” value was “+++ (+++ = 6 to 13 fold improvement over control Variant No. 2)”. For B27, the “Fold improvement over Control Variant No. 5 from Table 2A” value was “+++ (+++ = 6 to 13 fold improvement over control Variant No. 2)”. With B28 the “Fold improvement over Control Variant No. 5 from Table 2A” value was “+++ (+++ = 6 to 13 fold improvement over control Variant No. 2)”. With B29 the “Fold improvement over Control Variant No. 5 from Table 2A” value was “+++ (+++ = 6 to 13 fold improvement over control Variant No. 2)”. For B30, the “Fold improvement over Control Variant No. 5 from Table 2A” value was “+++ (+++ = 6 to 13 fold improvement over control Variant No. 2)”. With B31 the “Fold improvement over Control Variant No. 5 from Table 2A” value was “++ (++ = 1.1 to 6 fold improvement over control Variant No. 2)”. With B32 the “Fold improvement over Control Variant No. 5 from Table 2A” value was “++ (++ = 1.1 to 6 fold improvement over control Variant No. 2)”. In the case of B33, the “Fold improvement over Control Variant No. 5 from Table 2A” value is reported as “+++ (+++ = 6 to 13 fold improvement over control Variant No. 2)”. With B34 the “Fold improvement over Control Variant No. 5 from Table 2A” value was “++ (++ = 1.1 to 6 fold improvement over control Variant No. 2)”. In the case of B35, the “Fold improvement over Control Variant No. 5 from Table 2A” value is reported as “++ (++ = 1.1 to 6 fold improvement over control Variant No. 2)”. In the case of B36, the “Fold improvement over Control Variant No. 5 from Table 2A” value is reported as “+++ (+++ = 6 to 13 fold improvement over control Variant No. 2)”. In the case of B37, the “Fold improvement over Control Variant No. 5 from Table 2A” value is reported as “+++ (+++ = 6 to 13 fold improvement over control Variant No. 2)”. With B38 the “Fold improvement over Control Variant No. 5 from Table 2A” value was “+++ (+++ = 6 to 13 fold improvement over control Variant No. 2)”. In the case of B39, the “Fold improvement over Control Variant No. 5 from Table 2A” value is reported as “+++ (+++ = 6 to 13 fold improvement over control Variant No. 2)”.
